# Laboratory results from article PMC8289069, “Functional requirement of terminal inverted repeats for efficient ProtoRAG activity reveals the early evolution of V(D)J recombination”.
# T1: mRAG1F (mouse, UniProt P15919 389-456)
# T1 sequence: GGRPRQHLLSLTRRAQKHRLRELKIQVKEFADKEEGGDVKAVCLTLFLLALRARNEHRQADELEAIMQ
# B1: 12RSS (dsDNA)
# DNA 1: GATCTGGCCTGTCTTACACAGTGATACAGACCTTAACAAAAACCCTGCAG
# DNA 2: CTGCAGGGTTTTTGTTAAGGTCTGTATCACTGTGTAAGACAGGCCAGATC
# Target: T1, mRAG1F
# Test: DNA-binding assay (type not stated); EMSA: 25 mM MOPS pH 7.0, 50 mM KCl, 2 mM DTT, 1.5 mM CaCl2, 2.5% glycerol, 50 nM HMGB1, 100 nM ss nonspecific oligo, ~50 nM each RAG, 25 C 20 min; pull-down: 50 mM Tris pH 7.5, 150 mM NaCl, 0.5% NP40, 5% glycerol, 1.5 mM CaCl2, 4 C
# Conditions: protein: recombinant; chain copies: 2; label: 5' biotin on strand 1; blunt
binder,measurement,value
B1,binding result,binds
